{"source": "patent US20120225437A1", "about": "(UNIVERSITY OF LEICESTER, published 2012)", "binders": {"B1": {"name": "CUB2 domain of rat MASP-1/-3 (residues E165-A277 of the mature polypeptide, isoform 1) (other)", "chain": "CSGNLFTQRTGTITSPDYPNPYPKSSECSYTIDLEEGFMVTLQFEDIFDIEDHPEVPCPYDYIKIKAGSKVWGPFCGEKSPEPISTQSHSIQILFRSDNSGENRGWRLSYRA", "notes": "also called MASP-1 CUB2; rat MASP-1 CUB2"}}, "key": {"[1]": {"target": "T1, Rat MBL-A (mannan-binding lectin A) (rat, UniProt P19999 18-238)", "T1 construct": "mature; It was immobilised on the SPR chip by amine coupling", "experiment": "SPR, MBL immobilised, CUB2 at 20, 10, 5 and 2.5 µM, 1:1 model", "experimental": "(§1) Data were fitted to a model in which there is a single Ca²⁺ site.\n(§2) MBL (0.025 mg/ml) was immobilized onto the surface of a GLM sensor chip (˜10,000 response units) at pH 4.5, using amine-coupling chemistry. […] For inhibition assays, MBL was immobilized on to a CM-5 sensor chip (14,000 response units) and binding was measured on a Biacore® 2000 (GE Healthcare) in 20 mM Tris/HCl pH 7.4, containing 140 mM NaCl, 5 mM Ca²⁺, and 0.005% SP-20. […] Changes in response units caused by differences in sample composition were subtracted from all data. To account for changes in ionic strength of the buffer due to the inhibitor, binding was measured in the presence of equivalent concentrations of NaCl."}, "[2]": {"target": "T1, Rat MBL-A (mannan-binding lectin A)", "experiment": "SPR, MBL immobilised, CUB2 injected, 5 mM Ca2+", "experimental": "as §1, §2"}}, "data": [{"binder": "B1", "values": [{"measurement": "koff", "setting": "[1]", "result": 0.0035, "unit": "s⁻¹"}, {"measurement": "kon", "setting": "[1]", "result": 131, "unit": "M⁻¹ s⁻¹"}, {"measurement": "Kd", "setting": "[2]", "result": 27, "unit": "µM"}]}]}
